± gives the uncertainty stated by the source.

The nature of the data set: amyloid nucleation score (Sup35N fusion, yeast selection) (log enrichment); library NNK3; higher = more nucleation; inactive = no reads after selection. In a few lines: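 Output and input plasmid inserts were sequenced by Illumina after psi-negative yeast carrying Sup35N fused to peptides of 20 random codons had been induced 24 hours with 100 μM copper sulfate and grown 7 days at 30°C on medium lacking adenine and uracil. The nucleation score is the DiMSum log enrichment of output over input reads, centred on the mode score of non-aggregating sequences. Sequences with under 100 input reads were excluded.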

Turning to SLRSCVYPMDDGIMQCWSSR, the amyloid nucleation score entry is “inactive”.

As to FFFLWGAP, the amyloid nucleation score result is “inactive”.

Regarding YSYICIILYWWCSRSAILPF, the amyloid nucleation score entry was “inactive”.

Take YSINTFLICYYMVRPY: the amyloid nucleation score turned out to be 2.36 ± 0.065.

On to ILFTPMPVVD, for which the amyloid nucleation score result is “inactive”.

On to YAVLNELVTRSCLYAVSFTI, for which the amyloid nucleation score result is “inactive”.

Consider SETHLLQGDISVVMVLSAN, for which the amyloid nucleation score entry is “inactive”.

In the case of DFILVSLLREDTNVGTACRV, the amyloid nucleation score result was “inactive”.

For YNCRVAVRWYS, the amyloid nucleation score entry is “inactive”.

For DILTDQS, the amyloid nucleation score result is “inactive”.

Consider TWYRCD, for which the amyloid nucleation score entry is “inactive”.

In turn, IRGSSKTDSKRTWVK returned an amyloid nucleation score of -0.364 ± 0.7.

As to FWKKLWNSSF, the amyloid nucleation score result was “inactive”.

Turning to SLLWCKANPKRF, the amyloid nucleation score result was “inactive”.

For the substance IQAAEVWMTAPFGFDMEGGR, the amyloid nucleation score result was “inactive”.

The substance IEFGGNN gave an amyloid nucleation score of 1.68 ± 0.13.

In turn, MCQNANRYTGMSLVMFVGSV came in with an amyloid nucleation score of 1.24 ± 0.12.

On to PRYRSLWFAKHMLAVLGSKW, for which the amyloid nucleation score result was “inactive”.

As for LCRSSMGPFGNLWEKQLYIW, the amyloid nucleation score entry was “inactive”.

Substance MIFLRIFYGLLGNSQFIIFL displayed an amyloid nucleation score of 0.331 ± 0.56.

On to RTCSLRCFCYCHLYFYDVNT, for which the amyloid nucleation score entry is “inactive”.

With LVALKSHDT, the amyloid nucleation score result was “inactive”.

Consider DCLASGMISFRVTMSNRYTI, for which the amyloid nucleation score is 0.241 ± 0.59.

On to RVSLLNKGVGLRNIRFHEFL, for which the amyloid nucleation score entry is “inactive”.

With AMMVRCFRDPKHEK, the amyloid nucleation score entry is “inactive”.

Consider EFMSSVGIYMEIDCTLGVCD, for which the amyloid nucleation score entry was “inactive”.

The substance HCHDVGVLLIKFCNNLWCSH registered an amyloid nucleation score of 1.99 ± 0.1.

As to LMDPNGLVQGLFYMELLT, the amyloid nucleation score entry is “inactive”.

Turning to RAHPALVWMIARTKSSSICL, the amyloid nucleation score entry is “inactive”.

As to NGLGSTRMNQGHKLVFTNSI, the amyloid nucleation score entry is “inactive”.

Turning to SLRSYSGILSFYGYSGKIST, the amyloid nucleation score result was “inactive”.

With HKFDNKIRPTWYVVLPIFNA, the amyloid nucleation score entry was “inactive”.

Substance VMDIVHPSSDAVVGRA showed an amyloid nucleation score of -0.125 ± 0.53.

On to NIVERGSDLRGLCKTFNDIA, for which the amyloid nucleation score result is “inactive”.

Turning to YHTPCSTSDVARRGRYSRRD, the amyloid nucleation score entry is “inactive”.

As to ISPSYVQSDQFIGRTHVS, the amyloid nucleation score entry is “inactive”.

Regarding VVDYTARWHRSYSSNGQRRM, the amyloid nucleation score result is “inactive”.

Turning to NMVDCGISLV, the amyloid nucleation score entry is “inactive”.

As for HVFRLCMGKTELAYFY, the amyloid nucleation score result was “inactive”.

On to WGVSLLVFHVTKQVRNRFYY, for which the amyloid nucleation score entry is “inactive”.

Turning to GNCLIRLTYR, the amyloid nucleation score entry is “inactive”.

Take KRRSTRL: the amyloid nucleation score result is “inactive”.

In turn, LSGADTYRSTTRSYGGNDVV displayed an amyloid nucleation score of -0.641 ± 1.1.

With DEVVWY, the amyloid nucleation score entry is “inactive”.

Regarding GCSRWCFGDTGIE, the amyloid nucleation score result was “inactive”.

For IYILYVMDF, the amyloid nucleation score entry was “inactive”.

Regarding IVGAAVRGKMRFSMSRAWLG, the amyloid nucleation score result is “inactive”.

As for LQCAHLFPV, the amyloid nucleation score was found to be 0.931 ± 0.099.

RNLYSIRANMWLNRQLRKYS: the amyloid nucleation score result was “inactive”.

NGFSFRLGWH registered an amyloid nucleation score of 1.55 ± 0.1.

For RSQFV, the amyloid nucleation score result was “inactive”.

Take MFEMS: the amyloid nucleation score entry is “inactive”.

Take FILSVCYARRDLTLKRTPSR: the amyloid nucleation score result was “inactive”.

On to GVPMCSWGMIILL, for which the amyloid nucleation score entry was “inactive”.

Turning to LAKDVFIC, the amyloid nucleation score result was “inactive”.

Take ISKSDLSLFN: the amyloid nucleation score result was “inactive”.

Consider AYLYNFLWDTGSVIWVVGHL, for which the amyloid nucleation score entry is “inactive”.

Consider KNLRVLGSSLIGLTLIECHG, for which the amyloid nucleation score was -0.801 ± 1.1.

As to MIVSQVCTRSHVMGRSLGAE, the amyloid nucleation score entry was “inactive”.

As for SGLIQNTRR, the amyloid nucleation score was -0.428 ± 1.1.

Turning to NILLND, the amyloid nucleation score result is “inactive”.

SDCGDFRLMVFQKSRRDSWN: the amyloid nucleation score result is “inactive”.

As to SAYRVKMHKRRKAESVLGFR, the amyloid nucleation score result was “inactive”.

For ALSGSGLRLTPMKQ, the amyloid nucleation score result is “inactive”.

Turning to FKDVSVPIR, the amyloid nucleation score entry is “inactive”.

Consider LSFQAMLVR, for which the amyloid nucleation score entry was “inactive”.

Regarding LNCPSYPNVGPWNLEVTAFQ, the amyloid nucleation score result was “inactive”.

On to WETFPHSFINVLIWDSFELV, for which the amyloid nucleation score entry is “inactive”.

With SKWYLFITGFRYMWFVRFNV, the amyloid nucleation score entry was “inactive”.

With NLLAMRLWQAQSMKRSLGFL, the amyloid nucleation score result was “inactive”.

Regarding GIGCDLFRCADTRWIVLPSM, the amyloid nucleation score result was “inactive”.

With DNFRVDLVNRLLFYRISHAA, the amyloid nucleation score entry was “inactive”.

Consider IVKVLNGFKTRVSSVCVTNG, for which the amyloid nucleation score result was “inactive”.

TGFYDCNLGLDLCIAIWVCS showed an amyloid nucleation score of -0.156 ± 0.34.

RLVDLAWRCYKIDKCLTCSS showed an amyloid nucleation score of -0.589 ± 0.93.

As to QSHIVSRGLAEENTW, the amyloid nucleation score result is “inactive”.

Take MVCNGFRDDRVMIVK: the amyloid nucleation score result was “inactive”.

For the substance STTVLQQSLLKNKNLSWDAS, the amyloid nucleation score entry is “inactive”.

For YWMLNAHRNW, the amyloid nucleation score result was “inactive”.

Regarding CPYSFEAAEYFRYGRVGYFT, the amyloid nucleation score result is “inactive”.

The substance MLLGRLSLEVKFEWIFPRIG returned an amyloid nucleation score of 0.687 ± 0.14.

In the case of WISSSGIPFDRYLLWYNSVG, the amyloid nucleation score entry was “inactive”.

On to VFVSS, for which the amyloid nucleation score is -0.36 ± 1.

LHRLMLTRCVPGFV gave an amyloid nucleation score of -0.443 ± 0.98.

Regarding YHLDFMMGINSFRRVKAEPG, the amyloid nucleation score result is “inactive”.

Substance WIRYTFYQNFRIL returned an amyloid nucleation score of -0.744 ± 0.8.

LNTDESWGFMCLTKFE: the amyloid nucleation score entry was “inactive”.

With MLSVPDVVRFWMFKFYKFSW, the amyloid nucleation score result was “inactive”.

Substance LFNNFYLVSFGWLDGG showed an amyloid nucleation score of 2.31 ± 0.068.

On to MFNSFTNWLRQDQCRTIIGS, for which the amyloid nucleation score result is “inactive”.

Regarding YKYLLFAFLETLGQWYLYVE, the amyloid nucleation score entry was “inactive”.

Regarding FSACRDRTLGDHGQQPRDIG, the amyloid nucleation score entry was “inactive”.

As to SNGVRSRLLE, the amyloid nucleation score entry is “inactive”.

On to TFPLAECRWIVWRLDDSLM, for which the amyloid nucleation score entry was “inactive”.

HHAVYIVVRMADKACDWGCC displayed an amyloid nucleation score of 1.84 ± 0.078.

LALFDRGTCRQSSVYSGEDS: the amyloid nucleation score result is “inactive”.

Consider TVSKCSERRVCTPGDSCVAC, for which the amyloid nucleation score result was “inactive”.

Consider ARISEFTESWNRRCYTLRYC, for which the amyloid nucleation score result was “inactive”.

As for NNFRVNVHIIALVPECYFRL, the amyloid nucleation score came out at 2.44 ± 0.077.

Take IKVLVWFRSRCGNGANNLVC: the amyloid nucleation score entry was “inactive”.

For LFGARDVFFER, the amyloid nucleation score entry was “inactive”.

IMMMNLKM gave an amyloid nucleation score of 1.92 ± 0.079.

With YDNVDNYTTEISVNGCLMMN, the amyloid nucleation score entry was “inactive”.

In the case of DCKMRIEICDMGLCTEHRKC, the amyloid nucleation score result is “inactive”.

Take LKEQSVQMAWP: the amyloid nucleation score entry is “inactive”.

As to LSFDVKASWV, the amyloid nucleation score entry was “inactive”.

Regarding LQIPKPFAMKYTMFQRKQND, the amyloid nucleation score entry is “inactive”.

In turn, IYSNSLACDRSGFFKASSSQ showed an amyloid nucleation score of -0.998 ± 1.2.

Regarding NLCDVGRMLNCRRTSFGYMF, the amyloid nucleation score result was “inactive”.

As to SIVICS, the amyloid nucleation score entry is “inactive”.

Turning to ANECDGVYNGAKCSRWNFLL, the amyloid nucleation score entry is “inactive”.

With DVNIRSSGDNTIAFKYYTMK, the amyloid nucleation score was 0.14 ± 0.38.

Turning to AITYTTSLKVSFVSKGVSGA, the amyloid nucleation score was 0.614 ± 0.32.

PECVVKSTN: the amyloid nucleation score result is “inactive”.

For FSLLCFRSWANPIVTMYKYY, the amyloid nucleation score entry was “inactive”.

NWMDDWSYVVVSF gave an amyloid nucleation score of -1.13 ± 2.5.

Consider TSDIDIY, for which the amyloid nucleation score was -0.397 ± 0.73.

With PYFFSLRNPRI, the amyloid nucleation score entry was “inactive”.

Regarding FIPPSLCIITS, the amyloid nucleation score result is “inactive”.

On to LVLVQEKHRSRTAEFDHRLT, for which the amyloid nucleation score is -0.186 ± 0.94.

For VIGQGLCWGFSTVDIP, the amyloid nucleation score entry is “inactive”.

For the substance SFVYCIVYLQSPFVLSTMVG, the amyloid nucleation score is 2.62 ± 0.078.

Take DQCVLRLPFVIRGSHVSGRK: the amyloid nucleation score result is “inactive”.

For GLRVQCWECTIRSFGV, the amyloid nucleation score worked out at 0.448 ± 0.24.

Turning to YLMYLGSFSAMLREKWQL, the amyloid nucleation score entry was “inactive”.

DRVPSDTRCYKYGLLLLWYQ: the amyloid nucleation score entry is “inactive”.

For FSLWEHPVKIMCLFVYVACG, the amyloid nucleation score entry was “inactive”.

On to MSYSFKAISAHNKQSVNNVW, for which the amyloid nucleation score result is “inactive”.

Regarding ACYNSKRMGGMYNSRVLDHD, the amyloid nucleation score result is “inactive”.

For FSISKLGCCYVTAMVVSASR, the amyloid nucleation score entry is “inactive”.

The substance WCASMRNVCYFVVFMESKLS registered an amyloid nucleation score of 0.294 ± 0.44.

Regarding INVDWFSPFGVLKNSSK, the amyloid nucleation score result is “inactive”.

(Values after the supplement of paper PMC12042874.)
